What all share (assay type): biochemical
Series [1] concerns the target T1, T. aurantiacus GH61A polypeptide (Thermoascus aurantiacus, UniProt G3XAP7, N13Y). As to the kind of experiment: Phosphoric acid swollen cellulose (PASC) conversion assay (Examples 20, 21). The settings on record: A. oryzae CEL3A beta-glucosidase (20 mg protein per g cellulose) only; 72 hours, 50° C. The procedure:
A 1.0% PASC slurry was prepared as described in Example 17. Ten ml of the 1.0% PASC slurry, 10 ml of H2O, and […] of dioxy compound were thoroughly mixed by shaking,
Five hundred μl aliquots of the 0.50% phosphoric acid swollen cellulose/0.05% dioxy compound slurry were pipetted into wells of a 2.0 ml 96-deepwell plate (Axygen, Union City, Calif., USA) using a 1000 μl micropipette with a wide aperture tip (end of tip cut off about 2 mm from the base). One hundred μl of 10 mM MnSO4-500 mM sodium acetate pH 5 were then added to each well. Two hundred μl of deionized water were added to each well. Enzyme mixtures were prepared and then added simultaneously to all wells in a volume of 200 μl, for a total of 1 ml in each reaction. […] All experiments reported were performed in triplicate.
(§1) Primary analysis of the hydrolysis reactions was performed using an AGILENT® 1100 HPLC with CHEMSTATION® software equipped with an AMINEX™ HPX-87H column. After approximately 4 days, the deep-well plate was removed from the incubator and chilled overnight to 4° C. The plate was then mixed well by inversion and briefly centrifuged 52×g in a SORVALL® RT7 centrifuge for 10 seconds. Samples were then mixed by pipetting, and 200 μl from each well were transferred to a MULTISCREEN® HV centrifuge filter plate assembly. The centrifuge filter plate assembly was centrifuged at 2000 rpm in a SORVALL® RT7 centrifuge for 20 minutes. […] Sugars were detected using a refractive index detector with quantification by integration compared to purified sugar standards.
All HPLC data processing was performed using MICROSOFT EXCEL™ software. […] In this assay only glucose was measured since beta-glucosidase was at high levels in all samples but the controls. Percent conversion was calculated using Equation 1. Triplicate data points were averaged and standard deviation was calculated.
The PASC assay was performed as described in Example 20.
Data were collected and analyzed, as described in Example 20, after 72 hours of incubation at 50° C.

The target in series [2] is T1, T. aurantiacus GH61A polypeptide. As to the kind of experiment: Bacterial cellulose conversion assay (Examples 15, 16). The settings on record: A. oryzae CEL3A beta-glucosidase (50 mg protein per g cellulose) only; 72 hours, 50° C. The procedure:
Bacterial cellulose was prepared from NATA DE COCO (Huerto International Trading, Lucena City, Philippines) by extensive rinsing of one 500 ml can of cubes with water followed by homogenation for 15 minutes in 0.25 M sodium hydroxide using a WARING BLENDER® (Waring Products, Torrington, Conn., USA). The resulting slurry was pelleted at 40,000×g in a SORVALL® RT7 centrifuge. The supernatant was discarded. The pellet was then resuspended in 0.25 M sodium hydroxide and stirred overnight at 4° C. This procedure was repeated four times. Following the first washing steps, the cellulose was washed six times under similar conditions, substituting water for 0.25 M sodium hydroxide. Following the water washing, the cellulose was again homogenized for 15 minutes in a WARING BLENDER®, and adjusted to a final volume of 250 ml.
A 0.36% bacterial cellulose slurry was prepared as described in Example 14. This 0.36% slurry was thoroughly resuspended by shaking, and quickly transferred to a 100 ml beaker and stirred rapidly with a magnetic stirrer. Seven hundred μl aliquots of the bacterial cellulose slurry were pipetted into wells of a 2.0 ml 96-deepwell plate (Axygen, Union City, Calif.) using a 1000 μl micropipette with a wide aperture tip (end of tip cut off about 2 mm from the base). One hundred μl of 10 mM MnSO4-500 mM sodium acetate pH 5 was then added to each well. One hundred μl of either deionized water, a 1% gallic acid solution dissolved in water, or a 1% gallic acid solution containing 50 mM EDTA were added to each well. Enzyme mixtures were prepared and then added simultaneously to all wells in a volume of 100 μl, for a total of 1 ml in each reaction. […] All experiments reported were performed in triplicate.
as §1
All HPLC data processing was performed using MICROSOFT EXCEL™ software. […] In this assay only glucose was measured since beta-glucosidase was at high levels in all samples but the controls. Percent conversion was determined using Equation 1. Triplicate data points were averaged and standard deviation was calculated.
The bacterial cellulose hydrolysis assay was performed as described in Example 15.
Data was collected and analyzed, as described in Example 15, after 72 hours of incubation at 50° C.

The target is the same in series [3]. The series is described as follows: Phosphoric acid swollen cellulose (PASC) hydrolysis assay (Examples 18, 19). The settings on record: A. oryzae CEL3A beta-glucosidase (20 mg protein per g cellulose) only; 72 hours, 50° C. The procedure: A 1% phosphoric acid swollen cellulose (PASC) slurry was prepared from AVICEL® PH101 using the protocol described by Zhang et al., 2006, Biomacromolecules 7: 644-648.
The 1.0% PASC slurry prepared as described in Example 17 was thoroughly resuspended by shaking, and quickly transferred to a 100 ml beaker and stirred rapidly with a magnetic stirrer. Five hundred μl aliquots of the 1.0% PASC slurry were pipetted into wells of a 2.0 ml 96-deepwell plate (Axygen, Union City, Calif., USA) using a 1000 μl micropipette with a wide aperture tip (end of tip cut off about 2 mm from the base). One hundred μl of 10 mM MnSO4-500 mM sodium acetate pH 5 were then added to each well. […]
Primary analysis of the hydrolysis reactions was performed using an AGILENT® 1100 HPLC with CHEMSTATION® software equipped with an AMINEX™ HPX-87H column. […] Sugars were detected using a refractive index detector with quantification by integration compared to purified sugar standards.
All HPLC data processing was performed using MICROSOFT EXCEL™ software. […] In this assay only glucose was measured since beta-glucosidase was at high levels in all samples but the controls. Percent conversion was calculated using Equation 1. Triplicate data points were averaged and standard deviation was calculated. […]
Data were collected and analyzed, as described in Example 18, after 72 hours of incubation at 50° C.

T1 sequence (G3XAP7 whole entry N13Y): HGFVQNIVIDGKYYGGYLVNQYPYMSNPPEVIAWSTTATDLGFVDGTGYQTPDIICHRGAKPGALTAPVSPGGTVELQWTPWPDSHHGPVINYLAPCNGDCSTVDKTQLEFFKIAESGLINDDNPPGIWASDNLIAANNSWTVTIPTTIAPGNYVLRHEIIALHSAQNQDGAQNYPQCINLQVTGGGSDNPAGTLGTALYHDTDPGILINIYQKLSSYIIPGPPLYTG

B1: A. oryzae CEL3A beta-glucosidase: CEL3A beta-glucosidase (SEQ ID NO: 112), recombinantly prepared as described in WO 2004/099228 (protein, listed as Aspergillus oryzae)
chain: MKLGWIEVAALAAASVVSAKDDLAYSPPFYPSPWADGQGEWAEVYKRAVDIVSQMTLTEKVNLTTGTGWQLERCVGQTGSVPRLNIPSLCLQDSPLGIRFSDYNSAFPAGVNVAATWDKTLAYLRGQAMGEEFSDKGIDVQLGPAAGPLGAHPDGGRNWEGFSPDPALTGVLFAETIKGIQDAGVIATAKHYIMNEQEHFRQQPEAAGYGFNVSDSLSSNVDDKTMHELYLWPFADAVRAGVGAVMCSYNQINNSYGCENSETLNKLLKAELGFQGFVMSDWTAHHSGVGAALAGLDMSMPGDVTFDSGTSFWGANLTVGVLNGTIPQWRVDDMAVRIMAAYYKVGRDTKYTPPNFSSWTRDEYGFAHNHVSEGAYERVNEFVDVQRDHADLIRRIGAQSTVLLKNKGALPLSRKEKLVALLGEDAGSNSWGANGCDDRGCDNGTLAMAWGSGTANFPYLVTPEQAIQNEVLQGRGNVFAVTDSWALDKIAAAARQASVSLVFVNSDSGEGYLSVDGNEGDRNNITLWKNGDNVVKTAANNCNNTVVIIHSVGPVLIDEWYDHPNVTGILWAGLPGQESGNSIADVLYGRVNPGAKSPFTWGKTRESYGSPLVKDANNGNGAPQSDFTQGVFIDYRHFDKFNETPIYEFGYGLSYTTFELSDLHVQPLNASRYTPTSGMTEAAKNFGEIGDASEYVYPEGLERIHEFIYPWINSTDLKASSDDSNYGWEDSKYIPEGATDGSAQPRLPASGGAGGNPGLYEDLFRVSVKVKNTGNVAGDEVPQLYVSLGGPNEPKVVLRKFERIHLAPSQEAVWTTTLTRRDLANWDVSAQDWTVTPYPKTIYVGNSSRKLPLQASLPKAQ
Regarding B1, the “conversion of the phosphoric acid swollen cellulose” value in series [1] is given as 2.0±0.1%. Moreover, in series [2], the “conversion of the bacterial cellulose” value came to 2.4±2.9%. The “conversion of PASC” value in series [3] came to 2.4±0.5%.

(Values after patent US9394555B2, “Compositions comprising a polypeptide having cellulolytic enhancing activity and a dioxy compound and uses thereof” (priority 2010, dated 2016).)
